Results taken from PMC4622456 (mAbs, 2015).

Tests used:
recombinant human IL23 [1] = target: T1, recombinant human IL23 (human, UniProt Q9NPF7;P29460); assay: cell-based or functional assay
recombinant human IL23 [2] = target: T1, recombinant human IL23; assay: BLI
recombinant human IL23 [3] = target: T1, recombinant human IL23; assay: BLI; remark: listed apart in the source
recombinant human IL23 [4] = target: T1, recombinant human IL23; assay: SPR
[5] = target: recombinant cynomolgus IL23 (Macaca fascicularis, UniProt H6WS56;H6WS55); assay: SPR
recombinant rat IL23 = recombinant rat IL23 (Rattus norvegicus, UniProt Q91Z84;Q9R278); assay: SPR
recombinant mouse IL23 = recombinant mouse IL23 (Mus musculus, UniProt Q9EQ14;P43432); assay: SPR
Sequence of recombinant mouse IL23 (Q9EQ14 22-196, chain 1 of 2): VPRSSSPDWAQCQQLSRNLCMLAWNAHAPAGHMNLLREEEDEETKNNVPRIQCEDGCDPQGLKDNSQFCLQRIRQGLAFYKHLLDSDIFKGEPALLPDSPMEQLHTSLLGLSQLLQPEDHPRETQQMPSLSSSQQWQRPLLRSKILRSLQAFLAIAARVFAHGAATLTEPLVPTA
Sequence of recombinant mouse IL23 (P43432 23-335, chain 2 of 2): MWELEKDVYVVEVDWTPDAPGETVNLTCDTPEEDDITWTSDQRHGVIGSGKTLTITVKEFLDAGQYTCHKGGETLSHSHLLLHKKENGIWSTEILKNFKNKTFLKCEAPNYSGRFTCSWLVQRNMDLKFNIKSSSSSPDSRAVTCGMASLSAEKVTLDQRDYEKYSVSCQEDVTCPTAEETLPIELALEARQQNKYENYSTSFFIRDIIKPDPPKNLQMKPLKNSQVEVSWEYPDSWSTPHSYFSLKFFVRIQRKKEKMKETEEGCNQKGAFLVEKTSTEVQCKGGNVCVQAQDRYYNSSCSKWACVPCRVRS

recombinant human IL23 [6] = target: T1, recombinant human IL23; assay: SPR; remark: listed apart in the source

T1 sequence (Q9NPF7 20-189, chain 1 of 2): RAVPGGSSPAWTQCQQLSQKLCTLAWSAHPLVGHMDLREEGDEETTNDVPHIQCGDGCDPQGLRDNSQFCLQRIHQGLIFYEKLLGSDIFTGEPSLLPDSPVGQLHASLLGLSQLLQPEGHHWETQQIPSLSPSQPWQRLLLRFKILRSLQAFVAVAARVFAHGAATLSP
T1 sequence (P29460 23-328, chain 2 of 2): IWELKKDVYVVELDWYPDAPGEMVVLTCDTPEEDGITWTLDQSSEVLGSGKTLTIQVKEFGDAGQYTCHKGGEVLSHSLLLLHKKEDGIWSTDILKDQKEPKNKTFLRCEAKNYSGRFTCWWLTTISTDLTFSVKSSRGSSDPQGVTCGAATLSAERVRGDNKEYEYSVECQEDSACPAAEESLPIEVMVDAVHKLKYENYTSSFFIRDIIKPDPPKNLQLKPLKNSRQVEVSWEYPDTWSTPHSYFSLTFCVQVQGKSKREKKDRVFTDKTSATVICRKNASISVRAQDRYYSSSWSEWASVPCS

B1: 18E5 (antibody, V domains shown)
VH: EVQLQQSGPELVKPGAAVKMSCKASGYTFTRYLIHWVKQKPGQGLEWIGYINPYNDGTKYNEKFKGKATLTSDKSSSTAYMELSSLTSEDSAVYYCTSNWDLDYWGQGTTLTVSS
VL: DIVMTQSPATLSVTPGDRVSLSCRASQSISDYLYWYQQKSHESPRLLIKFASQSISGIPSRFTGSGSGSDFTLSIDSVEPDDVGVFFCQNGHSFPFTFGGGTKLEIK
Inhibition of IL23 induced IL17 production in mouse splenocytes (IC50, pM) (recombinant human IL23 [1]): < 13 pM
Kd (recombinant human IL23 [2]): < 0.01 nM

B2: 15C11 (antibody, V domains shown)
VH: EVQLQQSGPVLVKPGASVKMSCKASGYTFTDYYMNWVKQSHGKSLEWIGVIIPYNGGTSYNQKFKGKATLTVDKSSSTAYMELNSLTSEDSAVYYCARDGHRWYFDVWGTGTTVTVSS
VL: DVVMTQTPLSLPVSLGDQASISCRSSQSLVHSNGNTYLHWYLQKPGQSPKLLIYKVSNRFSGVPDRFSGSGSGTDFTLKINRVEAEDLGVYFCSQSTHVPYTFGGGTQLEIK
Inhibition of IL23 induced IL17 production in mouse splenocytes (IC50, pM) (recombinant human IL23 [1]): 197 pM
Kd (recombinant human IL23 [2]): 0.026 nM

B3: 26F7 (antibody, V domains shown)
VH: EVQLQQSGPELVKPGASVKISCKASGYTFTDYYMNWVRQSHGESLEWIGDFNHNNDVITYNPKFKGKVTLTVEKSSTTAYMELRSLSSEDSAVYYCARGLRGYYAMDYWGQGTSVTVSS
VL: DIVLTQSPASLAVSLGQRATISCRASKSVRFSDYFYMHWYQQKPGQPPKLLIYLASNLESGVPARFSGSGSGTDFTLNIHPVEEEDAATYYCQNSRELPYTFGGGTKLEIK
Inhibition of IL23 induced IL17 production in mouse splenocytes (IC50, pM) (recombinant human IL23 [1]): 9 pM
Kd (recombinant human IL23 [2]): 0.028 nM

B4: 34G3 (antibody, V domains shown)
VH: EFQLQQSGPELVKPGASVKISCKASGYSFTDYNMNWVKQSKGKSLEWIGVIIPNYGFTSYNQNFKGKATLTVDQSSSTAHMQLNSVTSEDSAVYYCVRDGGILLWYLDVWGTGTTVTVSS
VL: DVVMTQTPLSLPVSLGDQASISCRSSQSLVHSNGNTYLHWYLQKPGQSPKLLIYKVSNRFSGVPDRFSGSGSGTDFTLKISRVEAEDLGVYFCSQSTHVPYTFGGGTKLEIN
Inhibition of IL23 induced IL17 production in mouse splenocytes (IC50, pM) (recombinant human IL23 [1]): 8 pM
Kd (recombinant human IL23 [2]): 0.033 nM

B5: BI 655067 (VH 05-Vk65 IgG1) (antibody, V domains shown)
VH: QVQLVQSGAEVKKPGSSVKVSCKASGFTFTDQTIHWVRQAPGQGLEWMGYIYPRDDSPKYNENFKGKVTLTADKSTSTAYMELSSLRSEDTAVYYCAIPDRSGYAWFIYWGQGTLVTVSS
VL: DIQMTQSPSSLSASVGDRVTITCKASRDVAIAVAWYQQKPGKVPKLLLFWASTRHTGVPDRFSGSGSGTDFTLTISSLQPEDLADYYCHQYSSYPFTFGQGTKLEIK
kon(serum)/kon(buffer) (recombinant human IL23 [3]): 1.2
Kd (recombinant human IL23 [4]): < 0.01 nM
Kd [5]: < 0.01 nM
binding result (recombinant rat IL23): no binding (tested: 1.2 μM)
binding result (recombinant mouse IL23): no binding (tested: 1.2 μM)

B6: VH 36-Vk65 IgG1 (antibody, V domains shown)
VH: QVQLVQSGAEVKKPGSSVKTSCKASGGTFTDQTIHWVRQRPGQGLEWMGYIYPRDDSPKYNENFKGRVTITADKSTSTAYMELSSLRSEDTAVYYCAIPDRSGYAWFIYWGQGTLVTVSS
VL: DIQMTQSPSSLSASVGDRVTITCKASRDVAIAVAWYQQKPGKVPKLLLFWASTRHTGVPDRFSGSGSGTDFTLTISSLQPEDLADYYCHQYSSYPFTFGQGTKLEIK
Kd (recombinant human IL23 [4]): 0.096 nM

B7: VH 65-Vk65 IgG1 (antibody, V domains shown)
VH: QVQLVQSGAEVKKPGSSVKVSCKASGGTFTDQTIHWVRQAPGQGLEWMGYIYPRDDSPKYNENFKGRVTLTADKSTSTAYMELSSLRSEDTAVYFCARPDRSGYAWFIYWGQGTLVTVSS
VL: DIQMTQSPSSLSASVGDRVTITCKASRDVAIAVAWYQQKPGKVPKLLLFWASTRHTGVPDRFSGSGSGTDFTLTISSLQPEDLADYYCHQYSSYPFTFGQGTKLEIK
Kd (recombinant human IL23 [4]): 0.107 nM

B8: BI 655066 (VH 02-Vk66 IgG1) (antibody, V domains shown)
VH: QVQLVQSGAEVKKPGSSVKVSCKASGYTFTDQTIHWMRQAPGQGLEWIGYIYPRDDSPKYNENFKGKVTITADKSTSTAYMELSSLRSEDTAVYYCAIPDRSGYAWFIYWGQGTLVTVSS
VL: DIQMTQSPSSLSASVGDRVTITCKASRDVAIAVAWYQQKPGKVPKLLIYWASTRHTGVPSRFSGSGSRTDFTLTISSLQPEDVADYFCHQYSSYPFTFGSGTKLEIK
kon(serum)/kon(buffer) (recombinant human IL23 [3]): 1.2
Kd (recombinant human IL23 [4]): < 0.01 nM
Kd [5]: < 0.01 nM
binding result (recombinant rat IL23): no binding (tested: 1.2 μM)
binding result (recombinant mouse IL23): no binding (tested: 1.2 μM)

B9: BI 655069 (VH 05-Vk66 IgG1) (antibody, V domains shown)
VH: QVQLVQSGAEVKKPGSSVKVSCKASGFTFTDQTIHWVRQAPGQGLEWMGYIYPRDDSPKYNENFKGKVTLTADKSTSTAYMELSSLRSEDTAVYYCAIPDRSGYAWFIYWGQGTLVTVSS
VL: DIQMTQSPSSLSASVGDRVTITCKASRDVAIAVAWYQQKPGKVPKLLIYWASTRHTGVPSRFSGSGSRTDFTLTISSLQPEDVADYFCHQYSSYPFTFGSGTKLEIK
kon(serum)/kon(buffer) (recombinant human IL23 [3]): 1.2
Kd (recombinant human IL23 [4]): 0.036 nM
Kd [5]: 0.016 nM
binding result (recombinant rat IL23): no binding (tested: 1.2 μM)
binding result (recombinant mouse IL23): no binding (tested: 1.2 μM)

B10: VH 36-Vk66 IgG1 (antibody, V domains shown)
VH: QVQLVQSGAEVKKPGSSVKTSCKASGGTFTDQTIHWVRQRPGQGLEWMGYIYPRDDSPKYNENFKGRVTITADKSTSTAYMELSSLRSEDTAVYYCAIPDRSGYAWFIYWGQGTLVTVSS
VL: DIQMTQSPSSLSASVGDRVTITCKASRDVAIAVAWYQQKPGKVPKLLIYWASTRHTGVPSRFSGSGSRTDFTLTISSLQPEDVADYFCHQYSSYPFTFGSGTKLEIK
Kd (recombinant human IL23 [4]): < 0.01 nM

B11: VH 65-Vk66 IgG1 (antibody, V domains shown)
VH: QVQLVQSGAEVKKPGSSVKVSCKASGGTFTDQTIHWVRQAPGQGLEWMGYIYPRDDSPKYNENFKGRVTLTADKSTSTAYMELSSLRSEDTAVYFCARPDRSGYAWFIYWGQGTLVTVSS
VL: DIQMTQSPSSLSASVGDRVTITCKASRDVAIAVAWYQQKPGKVPKLLIYWASTRHTGVPSRFSGSGSRTDFTLTISSLQPEDVADYFCHQYSSYPFTFGSGTKLEIK
Kd (recombinant human IL23 [4]): < 0.01 nM

B12: VH 02-Vk78 IgG1 (antibody, V domains shown)
VH: QVQLVQSGAEVKKPGSSVKVSCKASGYTFTDQTIHWMRQAPGQGLEWIGYIYPRDDSPKYNENFKGKVTITADKSTSTAYMELSSLRSEDTAVYYCAIPDRSGYAWFIYWGQGTLVTVSS
VL: DIQMTQSPSSLSASVGDRVTITCKASRDVAIAVAWYQQKPGKVPKLLLFWASTRHTGVPDRFSGSGSRTDFTLTISSLQPEDLADYYCHQYSSYPFTFGSGTKLEIK
Kd (recombinant human IL23 [4]): < 0.01 nM

B13: VH 36-Vk78 IgG1 (antibody, V domains shown)
VH: QVQLVQSGAEVKKPGSSVKTSCKASGGTFTDQTIHWVRQRPGQGLEWMGYIYPRDDSPKYNENFKGRVTITADKSTSTAYMELSSLRSEDTAVYYCAIPDRSGYAWFIYWGQGTLVTVSS
VL: DIQMTQSPSSLSASVGDRVTITCKASRDVAIAVAWYQQKPGKVPKLLLFWASTRHTGVPDRFSGSGSRTDFTLTISSLQPEDLADYYCHQYSSYPFTFGSGTKLEIK
Kd (recombinant human IL23 [4]): < 0.01 nM

B14: VH 65-Vk78 IgG1 (antibody, V domains shown)
VH: QVQLVQSGAEVKKPGSSVKVSCKASGGTFTDQTIHWVRQAPGQGLEWMGYIYPRDDSPKYNENFKGRVTLTADKSTSTAYMELSSLRSEDTAVYFCARPDRSGYAWFIYWGQGTLVTVSS
VL: DIQMTQSPSSLSASVGDRVTITCKASRDVAIAVAWYQQKPGKVPKLLLFWASTRHTGVPDRFSGSGSRTDFTLTISSLQPEDLADYYCHQYSSYPFTFGSGTKLEIK
Kd (recombinant human IL23 [4]): < 0.01 nM

B15: BI 655068 (VH 02-Vk65 IgG1) (antibody, V domains shown)
VH: QVQLVQSGAEVKKPGSSVKVSCKASGYTFTDQTIHWMRQAPGQGLEWIGYIYPRDDSPKYNENFKGKVTITADKSTSTAYMELSSLRSEDTAVYYCAIPDRSGYAWFIYWGQGTLVTVSS
VL: DIQMTQSPSSLSASVGDRVTITCKASRDVAIAVAWYQQKPGKVPKLLLFWASTRHTGVPDRFSGSGSGTDFTLTISSLQPEDLADYYCHQYSSYPFTFGQGTKLEIK
kon(serum)/kon(buffer) (recombinant human IL23 [3]): 1
Kd (recombinant human IL23 [4]): 0.015 nM
Kd [5]: < 0.01 nM
binding result (recombinant rat IL23): no binding (tested: 1.2 μM)
binding result (recombinant mouse IL23): no binding (tested: 1.2 μM)

B16: BI 655066, NS0 derived (human IgG1 Fc L234A, L235A) (antibody, V domains shown)
VH: QVQLVQSGAEVKKPGSSVKVSCKASGYTFTDQTIHWMRQAPGQGLEWIGYIYPRDDSPKYNENFKGKVTITADKSTSTAYMELSSLRSEDTAVYYCAIPDRSGYAWFIYWGQGTLVTVSS
VL: DIQMTQSPSSLSASVGDRVTITCKASRDVAIAVAWYQQKPGKVPKLLIYWASTRHTGVPSRFSGSGSRTDFTLTISSLQPEDVADYFCHQYSSYPFTFGSGTKLEIK
Kd (recombinant human IL23 [6]): < 0.01 nM

B17: BI 655066, CHO derived (antibody, V domains shown)
VH: QVQLVQSGAEVKKPGSSVKVSCKASGYTFTDQTIHWMRQAPGQGLEWIGYIYPRDDSPKYNENFKGKVTITADKSTSTAYMELSSLRSEDTAVYYCAIPDRSGYAWFIYWGQGTLVTVSS
VL: DIQMTQSPSSLSASVGDRVTITCKASRDVAIAVAWYQQKPGKVPKLLIYWASTRHTGVPSRFSGSGSRTDFTLTISSLQPEDVADYFCHQYSSYPFTFGSGTKLEIK
Kd (recombinant human IL23 [6]): < 0.01 nM
